Data as given in IntAct's records for PubMed 25517094.

target: SH3GL1, Q99961-1
Sequence (Q99961 whole entry): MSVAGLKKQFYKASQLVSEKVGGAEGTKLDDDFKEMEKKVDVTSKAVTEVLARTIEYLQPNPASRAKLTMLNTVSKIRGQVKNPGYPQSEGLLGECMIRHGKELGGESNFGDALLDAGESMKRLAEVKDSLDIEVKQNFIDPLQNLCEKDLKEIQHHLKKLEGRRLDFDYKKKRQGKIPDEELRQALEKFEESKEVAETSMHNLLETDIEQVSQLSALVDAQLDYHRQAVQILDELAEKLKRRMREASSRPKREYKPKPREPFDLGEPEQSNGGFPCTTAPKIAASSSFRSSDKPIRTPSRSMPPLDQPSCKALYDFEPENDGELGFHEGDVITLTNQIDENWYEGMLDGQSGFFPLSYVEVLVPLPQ

Beta-1 adrenergic receptor (Mus musculus), P34971 R271A, sequence (P34971 whole entry R271A): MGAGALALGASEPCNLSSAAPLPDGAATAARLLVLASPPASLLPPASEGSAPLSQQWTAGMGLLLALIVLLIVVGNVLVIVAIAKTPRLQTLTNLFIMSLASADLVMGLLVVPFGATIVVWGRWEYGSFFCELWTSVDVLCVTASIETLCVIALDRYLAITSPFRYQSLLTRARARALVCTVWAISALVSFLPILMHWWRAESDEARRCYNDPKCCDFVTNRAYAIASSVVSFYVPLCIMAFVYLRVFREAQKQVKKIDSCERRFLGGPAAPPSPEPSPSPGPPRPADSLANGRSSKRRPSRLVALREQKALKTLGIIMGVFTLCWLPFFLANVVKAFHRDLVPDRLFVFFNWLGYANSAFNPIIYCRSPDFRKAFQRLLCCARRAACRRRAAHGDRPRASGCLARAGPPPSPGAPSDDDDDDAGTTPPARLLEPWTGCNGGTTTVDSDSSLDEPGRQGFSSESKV
Beta-1 adrenergic receptor (Mus musculus), P34971 P272A;P273A, sequence (P34971 whole entry P272A/P273A): as the sequence (P34971 whole entry R271A) above, with A271R, P272A, P273A counted along it
Beta-1 adrenergic receptor (Mus musculus), P34971 P272A;P273A;P283A;P284A, sequence (P34971 whole entry P272A/P273A/P283A/P284A): as the sequence (P34971 whole entry R271A) above, with A271R, P272A, P273A, P283A, P284A counted along it
Beta-1 adrenergic receptor (Mus musculus), P34971 R298E;R299E, sequence (P34971 whole entry R298E/R299E): as the sequence (P34971 whole entry R271A) above, with A271R, R298E, R299E counted along it

effect of a mutation on the interaction | Substance
decreasing interaction strength | Beta-1 adrenergic receptor (Mus musculus), P34971 P272A;P273A
disrupting interaction strength | Beta-1 adrenergic receptor (Mus musculus), P34971 P272A;P273A;P283A;P284A
decreasing interaction strength | Beta-1 adrenergic receptor (Mus musculus), P34971 R271A
decreasing interaction strength | Beta-1 adrenergic receptor (Mus musculus), P34971 R298E;R299E
